The target in this experiment is PaxA T1-CDD di-domain construct (thiolation domain followed by the C-terminal docking domain of PaxA) (Xenorhabdus cabanillasii JM26). Nature of the experiment: SEC + NMR titration; analytical gel filtration and NMR titration experiments; complex in slow exchange on the NMR time scale; NMR at 293 K, samples in 50 mM sodium phosphate pH 6.5, 100 mM NaCl, 2 mM β-mercaptoethanol, 5% D2O. For orientation: Size exclusion chromatography separates by hydrodynamic size, large species first.

Consider “PaxB N-terminal docking domain (amino acids 1-30 of PaxB followed by a non-native tyrosine) (domain or fragment)”, for which the stoichiometry N worked out at 1.

Broadly, the stoichiometry N is the number of molecules, sites or subunits per partner or assembly.
